Results reported in the nanobody polyreactivity screen of Harvey et al. (2022).

Test: yeast display, Sf9 membrane polyspecificity reagent, FACS + sequencing; frameworks hold sequencing errors
Summary of the method: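 A nanobody's polyreactivity label depends on the gate it was sorted from. Yeast display cells were stained with 10% biotinylated, detergent-solubilized Sf9 membrane reagent for 1 hour at 4 °C, enriched on streptavidin microbeads and sorted by FACS. The low and high (top ~1%) gates were set on anti-HA fluorescence for expression and streptavidin fluorescence for reagent binding.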

| Sequence | polyreactivity (PSR sort gate) |
| --- | --- |
| QVQLLESGGGLVQAGGSLRLSCAASGFTFQYYAMGWYRQAPGKERELVAAITRGDSTNYADSVKGRFTISRDNAKNTVYLQMNSLKPEDTAVYYCAAGSAPSYWGGWYYERDYWGQGTQVTVSS | low polyreactivity |
| QVQLLESGGGLVQAGGSLRLSCAASGFTFVYYAMGWYRQAPGKERELVAAISSSGGITYYADSVKGRFTISRDNAKNTVYLQMNSMKPEDTAVYYCAARLWYPYYYWGQGTQVTVSS | high polyreactivity |
| QVQLLESGGGLVQAGGSLRLSCAASGFTFYRYAMGWYRQAPGTERELVAVISRGGNTYYADSVKGRFTISRDNAKNTVYLQMNSLKPEDTAVYDCAVYYPRGVSGGRFTRYDYWGQGTQVTVSS | high polyreactivity |
| QVQLLESGGGLVQAGGSLRLSCAASGITFEHYAMGWYRPAPGKERELVAAITWSGDSTNYADSVKGRFTISRDNAKNTVYLQMNSLNPEDTAVYYCAAYAYAGLYSGTWGYDYWGQGTQVTVSS | low polyreactivity |
| QVQLLESGGGLVQAGGSLRLSCAASGLTFTAYVMGWYRHAPGKERELVAAISGGGSTYADSVKGRFTISGDNAKNTVSLQMNSLKPEDTAVYYCNADGWGDRFWSNFRFDYWGQGTQVTVSS | low polyreactivity |
| QVQLLESGGGLVQAGGSLRLSCAASGLTIWRYAMGWYRQAPGKEREFVATISHNGGRTYYADSVKGRFTISRDNAKNSVYLQMNSLKPEDTAVYYCAADDWRWGYDYWGQGTQVTVSS | high polyreactivity |
| QVQLLESGGGLVQAGGSLRLSCAASGNTFSYYTMGWYRPAPGKERELVAAISASGGSTYYADSVKGRFTISRDNAKNTVYIQMNSLKQEDTAVYYCAASFYIERHRYNYWGHGTQVTVSS | high polyreactivity |
| QVQLLESGGGLVQAGGSLRLSCAASGNTYPVNARGWYRQAPGKERDLVAAISRTGASTYYADSVKGRFTISRDNAKNTVYLQMNSLIPEDTAVYYCAKYLKTPHNRRRVEALGYWGQGTQVTVSS | high polyreactivity |
| QVQLLESGGGLVQAGGSLRLSCAASGRIFNYNAMGWYRQAPGKERELVAAISWDGGSTYYADSVKGRFTISRDNAKNTVYLQMNSLKPEDTAVYYCAARGGSRRFQSQAYSLPRYDYWGQGTQVTVSS | high polyreactivity |
| QVQLLESGGGLVQAGGSLRLSCAASGRIFRRYAMGWYRQAPGKEREFVAAITKSGGSTYYADSVKGRFTISRDNAKNTVYLQMNSLKPEDTAVYYCATYPQYYFRYDYWGQGTQVTVSS | high polyreactivity |
| QVQLLESGGGLVQAGGSLRLSCAASGRNFGVNAMGWYRQAPGKERELVAVISSGGSTYYADSVKGRFTISRDNAKNTVFLQMNSLKPEDTAVYYCAAGNLPDYDYWGQGTQVTVSS | low polyreactivity |
| QVQLLESGGGLVQAGGSLRLSCAASGRNFSRYAMGWYRQAPGKERELVAGITRSGTTTYYADSVKGRFTISRDNAKNTVYLQMNSLKPEDTAVYYCAAPPIRPNLYDYWGQGTQVTVSS | high polyreactivity |
| QVQLLESGGGLVQAGGSLRLSCAASGRSYCNNVMGWYRQEPGKERELVAAITFSGTSTYYADSVKVRFTISRDNAKNTVYLQMNSLKPEDTAVYYCAKYRYADYYSPCYDYWGQGTQVTVSS | low polyreactivity |
| QVQLLESGGGLVQAGGSLRLSCAASGRTCRWYAMGWYTQAPWKERELVAAISSSTASTYYADSVKGRFTISRDYAKITVYLQMNSLKPEDSAVYYCAKYYYRFPVCYDYWGLGTQVTVSS | high polyreactivity |
| QVQLLESGGGLVQAGGSLRLSCAASGRTFRRYAMGWYRQAPGKERELVAAISYSGTTTYYADSVKGRFTISRDNAKNTVYLQMNSLKPEDTAVYYCNKATAYGLDYWGQGTQVTVSS | high polyreactivity |
| QVQLLESGGGLVQAGGSLRLSCAASGRTFRVYARGWYRQAPGKEREFVATISVRGGSTYYAYSVKGRFTISRDNAKITVYLQMNSLKPVDTAVYYCARSSRGNLDYWGQGTQVSVSS | low polyreactivity |
